Measured values published in IntAct's records for PubMed 22215984.

B1: Transcriptional regulatory protein ComA (Bacillus subtilis), P14204 (parent)
chain: MKKILVIDDHPAVMEGTKTILETDSNLSVDCLSPEPSEQFIKQHDFSSYDLILMDLNLGGEVNGMELSKQILQENPHCKIIVYTGYEVEDYFEEAIRAGLHGAISKTESKEKITQYIYHVLNGEILVDFAYFKQLMTQQKTKPAPSSQKEQDVLTPRECLILQEVEKGFTNQEIADALHLSKRSIEYSLTSIFNKLNVGSRTEAVLIAKSDGVL
partner: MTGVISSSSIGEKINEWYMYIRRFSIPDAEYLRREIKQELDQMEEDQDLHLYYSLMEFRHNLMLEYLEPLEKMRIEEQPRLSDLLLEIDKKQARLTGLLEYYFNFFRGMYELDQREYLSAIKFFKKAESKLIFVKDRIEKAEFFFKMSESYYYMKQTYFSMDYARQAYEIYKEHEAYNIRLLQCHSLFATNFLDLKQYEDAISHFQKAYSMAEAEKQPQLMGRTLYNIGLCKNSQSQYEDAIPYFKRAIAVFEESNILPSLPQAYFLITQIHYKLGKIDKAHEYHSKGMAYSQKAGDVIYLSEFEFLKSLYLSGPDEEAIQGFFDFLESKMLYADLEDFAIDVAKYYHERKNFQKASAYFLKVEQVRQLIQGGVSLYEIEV
B2: Regulatory protein RapF (Bacillus subtilis), P71002 (parent)
chain: B1 partner
partner: B1 chain

Variants of: B1
Conditions: with rapf_bacsu rapF
With R183A the “effect of a mutation on the interaction” value was “decreasing interaction”. In the case of T190A, the “effect of a mutation on the interaction” value is reported as “decreasing interaction”. For Y187A, the “effect of a mutation on the interaction” value was “decreasing interaction”. With N194A the “effect of a mutation on the interaction” value was “decreasing interaction”.

Variants of: B2
Conditions: with cmpa_bacsu comA
With P27A the “effect of a mutation on the interaction” value was “decreasing interaction”. With F24A the “effect of a mutation on the interaction” value was “disrupting interaction”. In the case of L67A, the “effect of a mutation on the interaction” value is reported as “disrupting interaction”. In the case of D28A, the “effect of a mutation on the interaction” value is reported as “disrupting interaction”. For Q78A, the “effect of a mutation on the interaction” value was “decreasing interaction”.
